In patent publication US20030119090:

What was measured:
[1] = molecular target: T1, Boc-Tyr-Thr(α-Man)-Val-OMe (Compound 10)
T1 chain: YTV

[2] = molecular target: T2, Cbz-Thr(α-Man)-Val-Gly-Ala-NH2 (Compound 9)
T2 chain: TVGA

[3] = molecular target: T3, Cbz-Thr(α-Man)-Val-OMe (Compound 7)
T3 chain: TV

[4] = molecular target: T4, Cbz-Thr(αManα1,2Man)-Val-OMe (Compound 11)
T4 chain: TV

[5] = molecular target: T5, Thr(α-Man)-Val-OMe (Compound 8)
T5 chain: TV

B1: recombinant α1,2-mannosyltransferase (soluble catalytic domain, protein sequence 31-442 of α1,2-ManT from S. cerevisiae, expressed from pManflag20 in the E. … (protein)
chain: RTQQYIPSSISAAFDFTSGSISPEQQVISEENDAKKLEQSALNSEASEDSEAMDEESKALKAAAEKADAPIDTKTTMDYITPSFANKAGKPKACYVTLVRNKELKGLLSSIKYVENKINKKFPYPWVFLNDEPFTEEFKEAVTKAVSSEVKFGILPKEHWSYPEWINQTKAAEIRADAATKYIYGGSESYRHMCRYQSGFFWRHELLEEYDWYWRVEPDIKLYCDINYDVFKWMQENEKVYGFTVSIHEYEVTIPTLWQTSMDFIKKNPEYLDENNLMSFLSNDNGKTYNLCHFWSNFEIANLNLWRSPAYREYFDTLDHQGGFFYERWGDAPVHSIAAALFLPKDKIHYFSDIGYHHPPYDNCPLDKEVYNSNNCECDQGNDFTFQGYSCGKEYYDAQGLVKPKNWKKFRE
With B1 the Km (acceptor), mannosyl transfer reaction [1] was 0.7 mM, the “Km, fold lower than that of Compound 7” value [1] was “This value is 10 times less than that of Compound 7” and the “Km, fold lower than that of ManαOMe (Compound 1)” value [1] was 80 times smaller than that of ManαOMe (Compound 1). It also gave a Vrelative (ratio of Vmax, ManαOMe = 1.0), mannosyl transfer from GDP-Man to acceptor [1] of 0.35, a Vrelative (ratio of Vmax, ManαOMe = 1.0), mannosyl transfer from GDP-Man to acceptor [2] of 0.55 and a Km (acceptor), mannosyl transfer reaction [3] of 7.8 mM. The Vrelative (ratio of Vmax, ManαOMe = 1.0), mannosyl transfer from GDP-Man to acceptor [3] was 0.71, the Km (acceptor), mannosyl transfer reaction [4] was 26 mM and the Vrelative (ratio of Vmax, ManαOMe = 1.0), mannosyl transfer from GDP-Man to acceptor [4] was 0.17. The Vrelative (ratio of Vmax, ManαOMe = 1.0), mannosyl transfer from GDP-Man to acceptor [5] was 0.68.
